According to US20100209956A1:

Molecular target: soluble form of hepsin encompassing the entire extracellular domain (Arg45-Leu417) and a C-terminal His8 tag (human) (UniProt P05981)
Experiment: cell-based or functional assay

Chain of soluble form of hepsin encompassing the entire extracellular domain (Arg45-Leu417) and a C-terminal His8 tag (human) (P05981 45-162 limits assumed, chain 1 of 2): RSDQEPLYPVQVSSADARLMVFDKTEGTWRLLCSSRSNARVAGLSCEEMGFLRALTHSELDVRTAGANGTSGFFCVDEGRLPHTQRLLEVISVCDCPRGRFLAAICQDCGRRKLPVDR
Chain of soluble form of hepsin encompassing the entire extracellular domain (Arg45-Leu417) and a C-terminal His8 tag (human) (P05981 other isoform, or with tags, fused parts or gaps limits assumed, chain 2 of 2): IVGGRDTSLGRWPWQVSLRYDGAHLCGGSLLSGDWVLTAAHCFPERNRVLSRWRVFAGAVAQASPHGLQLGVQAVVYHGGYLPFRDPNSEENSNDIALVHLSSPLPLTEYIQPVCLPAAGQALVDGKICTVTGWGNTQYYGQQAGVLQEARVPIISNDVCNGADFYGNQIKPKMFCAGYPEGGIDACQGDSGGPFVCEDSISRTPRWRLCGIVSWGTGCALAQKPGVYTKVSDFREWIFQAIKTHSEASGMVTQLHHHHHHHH

Row | IC50, inhibition of hepsin enzymatic activity towards S2366 (amidolytic assay) | activity in amidolytic assays as percent of wildtype and KD2 mutant | fold reduction of inhibitory activity against wildtype sHAI-1B (amidolytic assay) | Binder
1 | 1.3 nM | – | – | soluble form of HAI-2 (sHAI-2), extracellular domain Ala28-Lys197 with a C-terminal His8 tag with a Gly spacer (protein, human, not shown: small tags and cut ends) ADRERSIHDFCLVSKVVGRCRASMPRWWYNVTDGSCQLFVYGGCDGNSNNYLTKEECLKKCATVTENATGDLATSRNAADSSVPSAPRRQDSEDHSSDMFNYEEYCTANAVTGPCRASFPRWYFDVERNSCNNFIYGGCRGNKNSYRSEEACMLRCFRQQENPPLPLGSKHHHHHHHH
2 | 18.2 nM | – | – | sHAI-1B(K401A) (protein, UniProt O43278 36-465, looked up) GPPPAPPGLPAGADCLNSFTAGVPGFVLDTNASVSNGATFLESPTVRRGWDCVRACCTTQNCNLALVELQPDRGEDAIAACFLINCLYEQNFVCKFAPREGFINYLTREVYRSYRQLRTQGFGGSGIPKAWAGIDLKVQPQEPLVLKDVENTDWRLLRGDTDVRVERKDPNQVELWGLKEGTYLFQLTVTSSDHPEDTANVTVTVLSTKQTEDYCLASNKVGRCRGSFPRWYYDPTEQICKSFVYGGCLGNKNNYLREEECILACRGVQGGPLRGSSGAQATFPQGPSMERRHPVCSGTCQPTQFRCSNGCCIDSFLECDDTPNCPDASDEAACEKYTSGFDELQRIHFPSDKGHCVDLPDTGLCAESIPRWYYNPFSEHCARFTYGGCYGNKNNFEEEQQCLESCRGISKKDVFGLRREIPIPSTGSVE
3 | > 1000 nM | < 1% | > 47 fold | sHAI-1B(R260A) (protein, UniProt O43278 36-465, looked up) GPPPAPPGLPAGADCLNSFTAGVPGFVLDTNASVSNGATFLESPTVRRGWDCVRACCTTQNCNLALVELQPDRGEDAIAACFLINCLYEQNFVCKFAPREGFINYLTREVYRSYRQLRTQGFGGSGIPKAWAGIDLKVQPQEPLVLKDVENTDWRLLRGDTDVRVERKDPNQVELWGLKEGTYLFQLTVTSSDHPEDTANVTVTVLSTKQTEDYCLASNKVGRCAGSFPRWYYDPTEQICKSFVYGGCLGNKNNYLREEECILACRGVQGGPLRGSSGAQATFPQGPSMERRHPVCSGTCQPTQFRCSNGCCIDSFLECDDTPNCPDASDEAACEKYTSGFDELQRIHFPSDKGHCVDLPDTGLCKESIPRWYYNPFSEHCARFTYGGCYGNKNNFEEEQQCLESCRGISKKDVFGLRREIPIPSTGSVE
